The record followed here is PMC2002509, “Site-Directed Mutations in the C-Terminal Extension of Human αB-Crystallin Affect Chaperone Function and Block Amyloid Fibril Formation” (PLoS ONE, 2007).

The labels stand for the following.
B1: I159A/I161A αB-crystallin (natural protein, human, UniProt P02511 1-175, looked up)
chain: MDIAIHHPWIRRPFFPFHSPSRLFDQFFGEHLLESDLFPTSTSLSPFYLRPPSFLRAPSWFDTGLSEMRLEKDRFSVNLDVKHFSPEELKVKVLGDVIEVHGKHEERQDEHGFISREFHRKYRIPADVDPLTITSSLSSDGVLTVNGPRKQVSGPERTAPATREEKPAVTAAPKK
notes: αB-crystallin, human, SwissProt P02511, with I159A and I161A (I-X-I motif); ESI-MS mass 20074.4 Da; The measured mass fits the whole untagged protein with both changes; also called I159A/I161A mutant; source: dialyzed against 50 mM phosphate buffer
B2: K174A/K175A αB-crystallin (natural protein, human, UniProt P02511 1-175, looked up)
chain: MDIAIHHPWIRRPFFPFHSPSRLFDQFFGEHLLESDLFPTSTSLSPFYLRPPSFLRAPSWFDTGLSEMRLEKDRFSVNLDVKHFSPEELKVKVLGDVIEVHGKHEERQDEHGFISREFHRKYRIPADVDPLTITSSLSSDGVLTVNGPRKQVSGPERTIPITREEKPAVTAAPAA
notes: αB-crystallin, human, SwissProt P02511, with K174A and K175A; ESI-MS mass 20044.8 Da; The measured mass fits the whole untagged protein with both lysines changed to alanine, although the printed primer reads GCG AAG; also called K174A/K175A mutant
B3: Wild-type human αB-crystallin (natural protein, UniProt P02511 1-175, looked up)
chain: MDIAIHHPWIRRPFFPFHSPSRLFDQFFGEHLLESDLFPTSTSLSPFYLRPPSFLRAPSWFDTGLSEMRLEKDRFSVNLDVKHFSPEELKVKVLGDVIEVHGKHEERQDEHGFISREFHRKYRIPADVDPLTITSSLSSDGVLTVNGPRKQVSGPERTIPITREEKPAVTAAPKK
notes: αB-crystallin, human, SwissProt P02511; Polydisperse oligomer; also called αB-WT; wild-type αB-crystallin
B4: E164A/E165A αB-crystallin (natural protein, human, UniProt P02511 1-175, looked up)
chain: MDIAIHHPWIRRPFFPFHSPSRLFDQFFGEHLLESDLFPTSTSLSPFYLRPPSFLRAPSWFDTGLSEMRLEKDRFSVNLDVKHFSPEELKVKVLGDVIEVHGKHEERQDEHGFISREFHRKYRIPADVDPLTITSSLSSDGVLTVNGPRKQVSGPERTIPITRAAKPAVTAAPKK
notes: αB-crystallin, human, SwissProt P02511, with E164A and E165A; ESI-MS mass 20043.0 Da; The measured mass fits the whole untagged protein with both changes; also called E164A/E165A mutant
B5: K175L αB-crystallin (natural protein, human, UniProt P02511 1-175, looked up)
chain: MDIAIHHPWIRRPFFPFHSPSRLFDQFFGEHLLESDLFPTSTSLSPFYLRPPSFLRAPSWFDTGLSEMRLEKDRFSVNLDVKHFSPEELKVKVLGDVIEVHGKHEERQDEHGFISREFHRKYRIPADVDPLTITSSLSSDGVLTVNGPRKQVSGPERTIPITREEKPAVTAAPKL
notes: αB-crystallin, human, SwissProt P02511, with K175L; ESI-MS mass 20143.9 Da; The measured mass fits the whole untagged protein with the change; also called K175L mutant

For one series, the target named is insulin B-chain (bovine pancreas insulin reduced with DTT) (bovine, UniProt P01317 25-54). The series is described as follows: cell-based or functional assay.
insulin B-chain (bovine pancreas insulin reduced with DTT), sequence (P01317 25-54): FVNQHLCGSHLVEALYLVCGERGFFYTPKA
Turning to B1, the “decrease in chaperone assay: percentage protection against DTT-induced precipitation of the insulin B-chain (light scattering at 340 nm, 37°C, 1.0:0.14 molar ratio of insulin:αB-crystallin, after 90 …)” value worked out at 68%.

Another series deals with the molecule itself. The series is described as follows: SEC; size-exclusion HPLC, Phenomenex BioSep SEC S4000 column; mobile phase 50 mM sodium phosphate buffer, pH 7.2; 10 µL of a 10 mg/mL sample, 0.5 mL/min; calibrated with mass standards; self-association into oligomers.
As to B1, the binding result was “binds”.
Still for that read-out and setting: the entry for B2 is “binds”.
Still for that read-out and setting: the entry for B3 is “binds”; for B4 it is “binds”; for B5 it is “binds”.
